Data taken from paper PMC8062120.

What was measured:
[1] = target: F-actin (rabbit skeletal muscle actin, polymerized) (rabbit) (UniProt P68135)
[2] = target: F-actin (Oryctolagus cuniculus) (UniProt P68135); details: cited from earlier work
[3] = target: α-actinin-2 (Homo sapiens) (UniProt P35609); details: cited from earlier work
Chain of α-actinin-2 (Homo sapiens) (P35609 whole entry): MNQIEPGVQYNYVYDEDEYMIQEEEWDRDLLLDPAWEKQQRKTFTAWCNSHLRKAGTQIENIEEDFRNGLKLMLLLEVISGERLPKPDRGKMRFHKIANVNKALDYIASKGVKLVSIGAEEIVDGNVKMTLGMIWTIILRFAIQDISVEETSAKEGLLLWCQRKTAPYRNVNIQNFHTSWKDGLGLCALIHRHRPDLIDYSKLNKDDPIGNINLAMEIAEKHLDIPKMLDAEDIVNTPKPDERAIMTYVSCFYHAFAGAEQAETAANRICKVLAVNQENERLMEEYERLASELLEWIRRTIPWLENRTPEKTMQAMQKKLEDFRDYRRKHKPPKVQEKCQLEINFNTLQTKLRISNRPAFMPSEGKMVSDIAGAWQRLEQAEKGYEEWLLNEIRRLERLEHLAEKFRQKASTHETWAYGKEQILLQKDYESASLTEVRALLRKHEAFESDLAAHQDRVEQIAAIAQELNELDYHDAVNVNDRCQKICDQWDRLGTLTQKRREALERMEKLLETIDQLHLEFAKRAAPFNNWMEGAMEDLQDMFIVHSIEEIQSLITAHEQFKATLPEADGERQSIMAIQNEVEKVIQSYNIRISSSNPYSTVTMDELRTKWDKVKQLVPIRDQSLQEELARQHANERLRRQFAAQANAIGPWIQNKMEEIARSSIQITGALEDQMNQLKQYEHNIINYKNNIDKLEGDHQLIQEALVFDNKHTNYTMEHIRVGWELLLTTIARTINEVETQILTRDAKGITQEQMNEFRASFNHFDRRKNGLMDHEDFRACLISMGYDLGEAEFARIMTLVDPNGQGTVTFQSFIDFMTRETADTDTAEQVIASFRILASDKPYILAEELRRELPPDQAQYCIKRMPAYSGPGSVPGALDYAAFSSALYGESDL

Chain of Titin Zr-7 (Q8WZ42 692-740): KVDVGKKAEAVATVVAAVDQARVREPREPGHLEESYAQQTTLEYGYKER

| Substance | FRAP in Z-discs of C2C12 myotubes, median half-time of fluorescence recovery [1] | other results |
| --- | --- | --- |
| N-terminal EGFP fusion of myotilin K354/358/359A (from UniProt Q9UBF9 1-498) (natural protein) | 32.3 s |  |
| N-terminal EGFP fusion of myotilin, wild type (from UniProt Q9UBF9 1-498) (natural protein) | 72.4 s |  |
| Palladin (from UniProt Q8WX93) |  | Kd [2]: 2.1 µM |
| Titin Zr-7 (from UniProt Q8WZ42) |  | Kd [3]: 0.48 µM |

Now from value to substance, other results behind:

| FRAP in Z-discs of C2C12 myotubes, median half-time of fluorescence recovery [1] | Substance | other results |
| --- | --- | --- |
| 35.5 s | N-terminal EGFP fusion of myotilin K354/359A (from UniProt Q9UBF9 1-498) (natural protein) |  |
| 48.2 s | N-terminal EGFP fusion of myotilin K354A (from UniProt Q9UBF9 1-498) (natural protein) |  |
| 64.1 s | N-terminal EGFP fusion of myotilin K359A (from UniProt Q9UBF9 1-498) (natural protein) |  |
